These results are taken from publication PMC12751052.

The term stoichiometry N denotes the number of molecules, sites or subunits per partner or assembly.

The target of the assay is AcrIII-2 (second anti-CRISPR of type III systems), viral SAVED protein of Thermocrinis Great Boiling Spring virus (Thermocrinis Great Boiling Spring virus). The experiment in a line: crystal structure; apo AcrIII-2, X-ray, data to 1.79 Å; crystals from 1.2 M sodium dihydrogen phosphate, 0.8 M dipotassium hydrogen phosphate, 0.2 M lithium sulphate, 0.1 M CAPS pH 10, 293 K.

The substance “AcrIII-2 (second anti-CRISPR of type III systems), viral SAVED protein of Thermocrinis Great Boiling Spring virus (natural protein)” returned a stoichiometry N of 2.
